Data as given in patent US20030086946A1.

Biological target: purified human folate receptor (hFR) (human) (UniProt P15328)
Sequence of UniProt P15328 (P15328 25-234): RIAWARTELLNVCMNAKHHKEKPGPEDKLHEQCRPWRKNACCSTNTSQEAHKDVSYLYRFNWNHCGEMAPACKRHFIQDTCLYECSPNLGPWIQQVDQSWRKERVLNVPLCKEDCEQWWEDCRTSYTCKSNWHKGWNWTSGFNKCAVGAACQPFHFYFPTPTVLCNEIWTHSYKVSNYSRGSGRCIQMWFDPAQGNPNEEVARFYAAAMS

## wild-type (native) Clostridium septicum alpha toxin
  hFR Binding (percent of wild type) (% of wild type): 100
